Assay results published in the supplement of paper PMC7877785.
± gives the uncertainty stated by the source.

Assay: self-splicing fitness, log relative to wild type (ln ratio); higher = more splicing; Tetrahymena group I intron in knt gene, E. coli kanamycin selection, DiMSum; sequences stand for … in CUCUCU…GGAGGGAAAAGUUAUCAGGCAUGCACCUGGUAGCUAGUCUUUAAACCAAUAGAUUGCAUCGGUUUAAAAGGCAAGACCGUCAAAUUGCGGGAAAGGGGUCAACAGCCGUUCAGUACCAAGUCUCAGGGGAAACUUUGAGAUGGCCUUGCAAAGGGUAUGGUAAUAAGCUGACGGACAUGGUCCUAACCACGCAGCCAAGUCCUAAGUCAACAGAUCUUCUGUUGAUAUGGAUGCAGUUCACAGACUAAAUGUCGGUCGGGGAAGAUGUAUUCUUCUCAUAAGAUAUAGUCGGACCUCUCCUUAAUGGGAGCUAGCGGAUGAAGUGAUGCAACACUGGAGCCGCUGGGAACUAAUUUGUAUGCGAAAGUAUAUUGAUUAGUUUUGGAGUACUCGUGGUCG
Summary of the method: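 Fitness was computed with DiMSum as the error-weighted combination of replicate fold changes, kanamycin versus none, each normalised to wild type. The library randomised all eight intron nucleotides of the P1ex region, with the intron placed in the knt kanamycin-resistance gene on pET-22b(+) in E. coli BL21(DE3). Six replicate transformations were grown overnight at 37°C or 30°C on LB agar with or without 25 μg/mL kanamycin, plus 100 μg/mL carbenicillin, 50 μM IPTG and 0.2% rhamnose. Pooled colonies were amplicon-sequenced on an Illumina HiSeq 2500.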

Sequence	self-splicing fitness (ln) (30 °C)	self-splicing fitness (ln) (37 °C)
GAGGAGCAAUAUUACGUUGA	-3.73 ± 0.42	-2.24 ± 0.33
GGUCAGCAAUAUUACGUCCU	-2.63 ± 0.31	-1.85 ± 0.29
CACCAGCAAUAUUACGUCAC	-2.9 ± 0.15	-2.9 ± 0.3
UGGGAGCAAUAUUACGGCAC		-0.43 ± 0.35
UAAUAGCAAUAUUACGAGGG	-3.81 ± 0.39	-1.73 ± 0.23
AUACAGCAAUAUUACGAUAC	-2.01 ± 0.075	-1.08 ± 0.088
AACGAGCAAUAUUACGAUAA	-3.76 ± 0.2	-2.94 ± 0.21
AAUCAGCAAUAUUACGCCUG	-0.906 ± 0.17	0.165 ± 0.18
CGACAGCAAUAUUACGGGGA	-3.22 ± 0.15	-2.35 ± 0.11
UCCUAGCAAUAUUACGAUUG	-2.56 ± 0.24	-2.49 ± 0.45
UUCCAGCAAUAUUACGAAAU	-2.78 ± 0.36	-1.58 ± 0.32
AUGCAGCAAUAUUACGGGGG	-3.09 ± 0.18	-1.9 ± 0.16
GGAUAGCAAUAUUACGUUUC		-1.84 ± 0.41
AUUUAGCAAUAUUACGAGGG		-1.34 ± 0.28
GGACAGCAAUAUUACGGGAG	-2.73 ± 0.13	-1.28 ± 0.15
GCAGAGCAAUAUUACGCAGG	-4.06 ± 0.39	-2.2 ± 0.22
CGUUAGCAAUAUUACGCAAC	-2.61 ± 0.49	-2.01 ± 0.35
CGAAAGCAAUAUUACGUGAG	-0.204 ± 0.048	-0.102 ± 0.071
UGCCAGCAAUAUUACGCGAC	-2.62 ± 0.3	-0.608 ± 0.23
AAUCAGCAAUAUUACGUUUA	-0.652 ± 0.045	-0.106 ± 0.06
UAUAAGCAAUAUUACGUCGG	-0.782 ± 0.076	-0.0864 ± 0.098
ACCCAGCAAUAUUACGGUUA	-0.324 ± 0.059	-0.361 ± 0.06
AACGAGCAAUAUUACGAACA	-3.15 ± 0.28	-1.9 ± 0.16
CGAAAGCAAUAUUACGCAAG	-1.44 ± 0.097	-0.503 ± 0.12

Sequence	self-splicing fitness (ln) (30 °C)	self-splicing fitness (ln) (37 °C)
GUUCAGCAAUAUUACGCAGU	-1.18 ± 0.14	0.201 ± 0.22
UGCAAGCAAUAUUACGCGAC	-3.46 ± 0.19	-2.65 ± 0.23
ACCGAGCAAUAUUACGGAUU	-3.51 ± 0.16	-1.94 ± 0.16
GGAUAGCAAUAUUACGCGAC	-3.69 ± 0.36	-1.92 ± 0.38
AGAAAGCAAUAUUACGGUCG	-0.278 ± 0.07	-0.0273 ± 0.092
CGAUAGCAAUAUUACGCUAG	-1.18 ± 0.1	-1.52 ± 0.19
AGGCAGCAAUAUUACGUGAC	-3.86 ± 0.21	-1.84 ± 0.14
UGCAAGCAAUAUUACGCCUA	0.231 ± 0.073	0.0781 ± 0.075
CAUAAGCAAUAUUACGGAGG	-2.3 ± 0.11	-0.959 ± 0.13
GACCAGCAAUAUUACGUGAC	-1.27 ± 0.069	-1.7 ± 0.11
AGCGAGCAAUAUUACGUGCU	-4.05 ± 0.29	-1.41 ± 0.23
CGGGAGCAAUAUUACGUCAG	-3.08 ± 0.19	-2.34 ± 0.24
GCAUAGCAAUAUUACGAAUU	-2.48 ± 0.2	-1.61 ± 0.2
ACAUAGCAAUAUUACGAGCU	-1.32 ± 0.12	-0.388 ± 0.13
AACUAGCAAUAUUACGCACC	0.625 ± 0.17	-1.48 ± 0.25
UUACAGCAAUAUUACGCUGU	-3.49 ± 0.27	-2.37 ± 0.34
AGACAGCAAUAUUACGCGCG	-0.587 ± 0.074	0.222 ± 0.096
CAGCAGCAAUAUUACGGGCG	0.0476 ± 0.064	0.363 ± 0.083
UAACAGCAAUAUUACGGUAA	-2.07 ± 0.095	-1.22 ± 0.081
GGAGAGCAAUAUUACGGGAG	-4.1 ± 0.21	-2.37 ± 0.23
GUAGAGCAAUAUUACGAUCA	-1.28 ± 0.23	-0.907 ± 0.24
CUAGAGCAAUAUUACGCAAU	-3.77 ± 0.22	-3.08 ± 0.34
AGUUAGCAAUAUUACGAUCG	-0.446 ± 0.1	-0.0837 ± 0.12
AAGCAGCAAUAUUACGAACU	-0.292 ± 0.07	-1 ± 0.069
